Measured values reported in publication PMC11096381.

Molecular target: serum immunoglobulin M (IgM), endogenous mouse (mouse (endogenous in C57BL/6 mice))
Test: SEC + other: SDS-PAGE with western blot keeping disulfide bonds; peritoneal fluid and serum of healthy WT mice (0 h); 7.5% SDS-PAGE under conditions that prevent disruption of CD5L-IgM disulfide bonds, western blot for CD5L, densitometry of IgM-bound and free bands; WT serum also fractionated on Superose 12 10/300 GL in PBS and fractions blotted for CD5L and IgM

percent of CD5L bound to IgM: > 90%
B1: CD5 antigen-like (CD5L), endogenous mouse protein (natural protein)
chain: ESPTKVQLVGGAHRCEGRVEVEHNGQWGTVCDDGWDRRDVAVVCRELNCGAVIQTPRGASYQPPASEQRVLIQGVDCNGTEDTLAQCELNYDVFDCSHEEDAGAQCENPDSDLLFIPEDVRLVDGPGHCQGRVEVLHQSQWSTVCKAGWNLQVSKVVCRQLGCGRALLTYGSCNKNTQGKGPIWMGKMSCSGQEANLRSCLLSRLENNCTHGEDTWMECEDPFELKLVGGDTPCSGRLEVLHKGSWGSVCDDNWGEKEDQVVCKQLGCGKSLHPSPKTRKIYGPGAGRIWLDDVNCSGKEQSLEFCRHRLWGYHDCTHKEDVEVICTDFDV
